Test results published in publication PMC9296673, “Conformational landscape of the yeast SAGA complex as revealed by cryo-EM” (Scientific Reports, 2022).

B1: Taf12 (natural protein, S. cerevisiae, UniProt Q03761 1-539, looked up)
chain: MSSNPENSGVNANNNTGTGNADAITGAQQNMVLQPRQLQEMAAKFRTLLTEARNVGETTPRGKELMFQAAKIKQVYDALTLNRRRQQAAQAYNNTSNSNSSNPASIPTENVPNSSQQQQQQQQQTRNNSNKFSNMIKQVLTPEENQEYEKLWQNFQVRHTSIKEKETYLKQNIDRLEQEINKQTDEGPKQQLQEKKIELLNDWKVLKIEYTKLFNNYQNSKKTFYVECARHNPALHKFLQESTQQQRVQQQRVQQQQQQQQQQQQQQQQQQQQQQQRQGQNQRKISSSNSTEIPSVTGPDALKSQQQQQNTITATNNPRGNVNTSQTEQSKAKVTNVNATASMLNNISSSKSAIFKQTEPAIPISENISTKTPAPVAYRSNRPTITGGSAMNASALNTPATTKLPPYEMDTQRVMSKRKLRELVKTVGIDEGDGETVIDGDVEELLLDLADDFVTNVTAFSCRLAKHRKSDNLEARDIQLHLERNWNIRIPGYSADEIRSTRKWNPSQNYNQKLQSITSDKVAAAKNNGNNVASLNTKK
notes: Taf12, S. cerevisiae, subunit of the SAGA core module, endogenous subunit of the purified native complex; Subunit of native SAGA purified through a 3xFLAG tag; The complex was mildly cross-linked with glutaraldehyde (GraFix) before cryo-EM; also called Taf12 core subunit; source: endogenous, S. cerevisiae, purified as part of native SAGA (anti-FLAG M2 resin, FLAG peptide elution, GraFix)
B2: Spt20 (natural protein, S. cerevisiae, UniProt P50875 1-604, looked up)
chain: MSANSPTGNDPHVFGIPVNATPSNMGSPGSPVNVPPPMNPAVANVNHPVMRTNSNSNANEGTRTLTREQIQQLQQRQRLLLQQRLLEQQRKQQALQNYEAQFYQMLMTLNKRPKRLYNFVEDADSILKKYEQYLHSFEFHIYENNYKICAPANSRLQQQQKQPELTSDGLILTKNNETLKEFLEYVARGRIPDAIMEVLRDCNIQFYEGNLILQVYDHTNTVDVTPKENKPNLNSSSSPSNNNSTQDNSKIQQPSEPNSGVANTGANTANKKASFKRPRVYRTLLKPNDLTTYYDMMSYADNARFSDSIYQQFESEILTLTKRNLSLSVPLNPYEHRDMLEETAFSEPHWDSEKKSFIHEHRAESTREGTKGVVGHIEERDEFPQHSSNYEQLMLIMNERTTTITNSTFAVSLTKNAMEIASSSSNGVRGASSSTSNSASNTRNNSLANGNQVALAAAAAAAAVGSTMGNDNNQFSRLKFIEQWRINKEKRKQQALSANINPTPFNARISMTAPLTPQQQLLQRQQQALEQQQNGGAMKNANKRSGNNATSNNNNNNNNLDKPKVKRPRKNAKKSESGTPAPKKKRMTKKKQSASSTPSSTTMS
notes: Spt20, S. cerevisiae, subunit of the SAGA core module, endogenous subunit of the purified native complex; Subunit of native SAGA purified through a 3xFLAG tag; The complex was mildly cross-linked with glutaraldehyde (GraFix) before cryo-EM; also called Spt20 core subunit; source: endogenous, S. cerevisiae, purified as part of native SAGA (anti-FLAG M2 resin, FLAG peptide elution, GraFix)

Biological target: T1, Tra1 (S. cerevisiae, UniProt P38811 1-3744)
T1 construct: Tra1, S. cerevisiae, largest subunit of SAGA (433 kDa), endogenous subunit of the purified native complex; Subunit of native SAGA purified through a 3xFLAG tag; The complex was mildly cross-linked with glutaraldehyde (GraFix) before cryo-EM; also called Tra1 module; head; source: endogenous, S. cerevisiae, purified as part of native SAGA (anti-FLAG M2 resin, FLAG peptide elution, GraFix)
Assay: cryo-EM structure; native S. cerevisiae SAGA purified by anti-FLAG and GraFix (glycerol/glutaraldehyde gradient), 40 mM HEPES pH 7.4, 150 mM NaCl, 0.01% Tween-20, vitrified on lacey carbon grids with graphene oxide; consensus map 3.1 Å, Tra1 2.9 Å, core 3.2 Å; published models (PDB 6t9j, 6t9k) fitted into the map
Settings: both partners purified

T1 sequence (P38811 whole entry): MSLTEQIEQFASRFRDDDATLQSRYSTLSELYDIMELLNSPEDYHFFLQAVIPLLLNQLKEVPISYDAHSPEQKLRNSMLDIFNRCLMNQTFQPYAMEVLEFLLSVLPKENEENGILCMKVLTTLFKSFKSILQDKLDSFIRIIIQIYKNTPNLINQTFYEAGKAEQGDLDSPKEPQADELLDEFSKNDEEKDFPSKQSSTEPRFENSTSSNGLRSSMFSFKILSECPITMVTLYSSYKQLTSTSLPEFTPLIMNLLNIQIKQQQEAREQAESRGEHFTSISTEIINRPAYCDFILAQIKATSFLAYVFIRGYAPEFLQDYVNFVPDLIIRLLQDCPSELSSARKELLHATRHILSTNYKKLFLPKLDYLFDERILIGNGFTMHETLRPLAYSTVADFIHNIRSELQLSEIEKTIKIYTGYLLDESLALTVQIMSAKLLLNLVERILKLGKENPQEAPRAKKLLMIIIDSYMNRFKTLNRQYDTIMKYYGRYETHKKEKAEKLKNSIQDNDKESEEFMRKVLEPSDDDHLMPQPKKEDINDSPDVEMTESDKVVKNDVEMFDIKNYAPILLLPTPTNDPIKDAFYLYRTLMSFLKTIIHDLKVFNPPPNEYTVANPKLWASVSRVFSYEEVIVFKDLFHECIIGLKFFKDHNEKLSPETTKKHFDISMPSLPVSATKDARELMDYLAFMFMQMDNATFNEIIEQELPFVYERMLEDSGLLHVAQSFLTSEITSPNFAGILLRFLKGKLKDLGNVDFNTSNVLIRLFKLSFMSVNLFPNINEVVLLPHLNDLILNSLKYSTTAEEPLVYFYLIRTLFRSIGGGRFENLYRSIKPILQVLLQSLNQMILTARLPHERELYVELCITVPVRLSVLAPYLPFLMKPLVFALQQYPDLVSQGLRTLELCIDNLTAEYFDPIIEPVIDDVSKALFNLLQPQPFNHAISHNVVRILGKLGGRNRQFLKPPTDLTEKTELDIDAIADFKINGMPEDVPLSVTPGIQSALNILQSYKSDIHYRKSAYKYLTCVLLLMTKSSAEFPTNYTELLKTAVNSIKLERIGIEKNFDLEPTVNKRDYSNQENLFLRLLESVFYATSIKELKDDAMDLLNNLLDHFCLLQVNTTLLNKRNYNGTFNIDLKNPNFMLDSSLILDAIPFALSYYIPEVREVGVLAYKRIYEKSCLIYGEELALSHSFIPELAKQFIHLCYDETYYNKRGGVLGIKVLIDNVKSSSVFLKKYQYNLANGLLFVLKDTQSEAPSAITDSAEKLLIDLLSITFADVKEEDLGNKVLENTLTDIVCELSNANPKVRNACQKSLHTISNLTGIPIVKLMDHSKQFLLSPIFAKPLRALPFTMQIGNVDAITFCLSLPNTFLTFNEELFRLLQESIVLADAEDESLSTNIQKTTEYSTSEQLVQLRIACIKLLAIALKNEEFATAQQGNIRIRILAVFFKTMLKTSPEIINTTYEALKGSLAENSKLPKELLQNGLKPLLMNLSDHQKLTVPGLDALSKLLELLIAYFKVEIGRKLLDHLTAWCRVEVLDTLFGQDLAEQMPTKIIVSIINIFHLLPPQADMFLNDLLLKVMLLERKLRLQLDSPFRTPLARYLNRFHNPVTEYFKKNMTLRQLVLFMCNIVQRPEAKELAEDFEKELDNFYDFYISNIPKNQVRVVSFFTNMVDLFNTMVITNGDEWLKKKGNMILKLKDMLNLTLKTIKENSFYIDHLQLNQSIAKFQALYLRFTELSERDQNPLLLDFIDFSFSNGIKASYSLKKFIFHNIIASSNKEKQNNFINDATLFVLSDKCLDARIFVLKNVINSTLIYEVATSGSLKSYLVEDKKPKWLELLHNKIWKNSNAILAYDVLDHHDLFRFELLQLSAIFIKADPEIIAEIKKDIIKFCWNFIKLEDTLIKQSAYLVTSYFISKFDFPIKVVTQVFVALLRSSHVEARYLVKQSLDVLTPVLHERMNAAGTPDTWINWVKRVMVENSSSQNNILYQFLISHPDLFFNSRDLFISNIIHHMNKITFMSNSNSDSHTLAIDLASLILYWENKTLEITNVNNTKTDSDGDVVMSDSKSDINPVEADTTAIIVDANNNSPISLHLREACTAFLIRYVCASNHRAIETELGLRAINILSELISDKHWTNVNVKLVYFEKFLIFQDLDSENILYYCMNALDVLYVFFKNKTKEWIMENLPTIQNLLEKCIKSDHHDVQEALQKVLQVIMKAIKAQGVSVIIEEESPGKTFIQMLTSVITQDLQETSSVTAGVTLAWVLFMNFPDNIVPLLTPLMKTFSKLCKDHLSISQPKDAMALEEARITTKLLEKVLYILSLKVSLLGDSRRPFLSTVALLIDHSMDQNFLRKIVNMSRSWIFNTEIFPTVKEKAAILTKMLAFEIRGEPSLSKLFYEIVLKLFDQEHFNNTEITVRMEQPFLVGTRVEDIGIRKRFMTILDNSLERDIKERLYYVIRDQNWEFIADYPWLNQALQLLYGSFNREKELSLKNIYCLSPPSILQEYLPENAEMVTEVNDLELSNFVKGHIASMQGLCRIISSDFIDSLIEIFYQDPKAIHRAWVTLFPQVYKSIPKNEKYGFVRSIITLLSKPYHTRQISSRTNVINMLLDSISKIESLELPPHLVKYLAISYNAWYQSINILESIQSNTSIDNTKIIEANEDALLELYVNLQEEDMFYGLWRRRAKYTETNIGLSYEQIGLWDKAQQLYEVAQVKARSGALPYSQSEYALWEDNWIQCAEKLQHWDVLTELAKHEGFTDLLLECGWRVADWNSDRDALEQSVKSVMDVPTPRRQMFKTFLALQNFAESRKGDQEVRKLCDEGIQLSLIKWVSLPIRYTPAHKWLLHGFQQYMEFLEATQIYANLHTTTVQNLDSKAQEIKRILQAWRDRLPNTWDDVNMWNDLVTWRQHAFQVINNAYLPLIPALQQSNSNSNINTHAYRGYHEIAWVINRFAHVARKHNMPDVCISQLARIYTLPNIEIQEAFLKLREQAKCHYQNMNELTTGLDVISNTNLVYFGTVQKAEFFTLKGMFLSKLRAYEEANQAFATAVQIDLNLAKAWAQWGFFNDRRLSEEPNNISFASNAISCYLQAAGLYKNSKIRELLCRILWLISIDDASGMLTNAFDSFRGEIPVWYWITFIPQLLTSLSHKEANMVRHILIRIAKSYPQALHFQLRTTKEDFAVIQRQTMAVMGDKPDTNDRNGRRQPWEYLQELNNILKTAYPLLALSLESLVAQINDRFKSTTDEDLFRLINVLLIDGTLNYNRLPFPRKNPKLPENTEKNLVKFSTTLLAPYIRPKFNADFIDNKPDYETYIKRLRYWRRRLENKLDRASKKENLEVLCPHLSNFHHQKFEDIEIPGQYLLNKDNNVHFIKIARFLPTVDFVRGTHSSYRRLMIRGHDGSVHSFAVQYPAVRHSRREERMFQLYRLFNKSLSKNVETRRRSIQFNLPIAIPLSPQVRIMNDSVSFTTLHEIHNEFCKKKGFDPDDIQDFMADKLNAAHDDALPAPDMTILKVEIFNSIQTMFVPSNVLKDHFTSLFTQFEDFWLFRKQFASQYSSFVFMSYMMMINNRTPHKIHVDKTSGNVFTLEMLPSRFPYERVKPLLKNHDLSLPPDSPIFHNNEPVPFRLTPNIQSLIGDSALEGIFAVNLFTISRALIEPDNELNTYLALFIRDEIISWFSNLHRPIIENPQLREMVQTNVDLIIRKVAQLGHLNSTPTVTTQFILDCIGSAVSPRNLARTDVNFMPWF

Row | Binder | binding result
1 | B1 | binds
2 | B2 | binds
